Consider 16 sequences from the DeepSol protein solubility set.

A short description of the series: soluble on expression in E. coli; label from the status in PepcDB or PDB records.
Turning to “MAHRRKFGGGRGEAVAKAVGIKGSALPTVIDATAGLGRDAFVLAAIGCQVRLVERHPVVFLLLQDGLNRAYQDEEIGEMLQQNLHLLNVQHINELDPNSDYADVVYLDPMYPHKQKSALVKKEMRVFQHLVGADLDADELLLPALQLAKKRVVVKRPDYAEFLCGKQPHFSHETKNHRFDIYMGASQCLEHHHHHH”, the “soluble on expression in E. coli” value is “not soluble”.

As to “MLAAGEGKRMGACKPLLPLGASTVLAHVAKTLLPAINGPLVVVTGHHGDAVTAEALRLSLETAENTTPQDGMFSSVRTGIAHIVGRVDGVLVLPADIPFVRTATCALVVEAFRRHRAAVTYPTLCGERGHPPLLDADTMRAVLASSGDGGLRGVLLALERQGGTTHDVAVADEGIVTDMDTPADHAQLVARHPLRHIPTPREREALLEMAGTPARVRAHCRMVARAALAMAAHLEATRRGFISPFARQSAPHGISTSGAHAEPRSVPASTTTHAVHAEGNTTLPHTATAHVACPPPDVTTGPMPTCQPGHMPDHMPGTARDAAQQAPAATASPQRLDRPLIHAAATLHDICKGTQRHEAAGGALLTRHGFPEVGSIIAAHRDIAPQAGPEIDEAALVMLADKYVRGVSLIPVEERFDERLREWAHRPDVACDIAARKARVLMVRDLFESETATELFPLLQRKVRRGTFLEHHHHHH”, the “soluble on expression in E. coli” value is given as “not soluble”.

“MDAYRYWSREAIRADIDTRRHCLHIAIENFENDANIGTVVRTANAFAVDTVHIVGRKRWNRRGAMVTDRYQHLMHHPTTADVVAWAKQQGLTIVAIDNTPGCVPLETAELPERCLLLFGQEGPGVTQEAQDNARMTCSIAQFGSTRSINAGVAAGIAMHAWIRQHADLDNAW”: the “soluble on expression in E. coli” value is listed as “not soluble”.

Consider “MGSDKIHHHHHHMTYTPFFIHGEDRRSRWLITCDHATNTVPPEICGGDLGLAREDMERHIAYDVGAYEVSRLLGEMLAAPVIAANFSRLVIDPNRGEDDPTLLMKLYDGSIIPGNRHADAAERERRLNMCYRPYHDALARLAARPGVVLVSMHSFTRQLRGRAPRPWQIGVLHTADQRFSDPLIARLRGEADLCVGVNQPYTGVLPGDAIDTHCTAFGRPNALIELRNDLIGDPAGQHAWAERLAPLLQDALADSGL”, for which the “soluble on expression in E. coli” value is listed as “not soluble”.

With “MKINQMKKDQLFEGFYLIKSAEVRKTRAGKDFISLTFQDDTGEISGNLWDAQPYNVEEFTAGKVVFMKGRREVYNGTPQVNQITLRNVRPGEPNDPKDFKEKAPVSVTEVRDYLEQMLFKIENATWQRIVRALYRKYDKEFYTYPAAKTNHHAFESGLAYHTATMVRLADSIGDIYPDLNKSLLFAGIMLHDLAKVIELTGPDNTEYTVRGNLIGHISLINEEITKVISELQIDDTKEEVIVLRHVILSHHGQLEYGSPVRPRIMEAEIIHMIDNIDANMMMMTTALSRVSEGEMTNRIFAMDNRSFYKPNY”, the “soluble on expression in E. coli” value is recorded as “not soluble”.

Regarding “TPLSLTLDHWSEIRSRAHNLSVEIKKGPWRTFCASEWPTFDVGWPPEGTFDLTVIFEVKAIVFQDGPGSHPDQQPYITVWQDLVQNSPPWIK”, the “soluble on expression in E. coli” value was “soluble”.

For “MGSDKIHHHHHHMARETQCNRQTDCAQCPKATEGILVHRKFPKGQHFPPDKCTQNCILFILQGELLVNSEEYPGTTLREGQFILQSIGSKLELLALTDVNYVVYWFNEPPLICEQRYHEILQQSEAPLTYTPLVMTQRITNFMKDICDYLDEQMPCGAFIDLKCQELMYLIICYYPIPQLSKFFYPISSYTESFQYFVMQNYEKVKNVEEFAHLGGYTTTTFRRLFKNMYGVPVYEWILSKKREGILEDLQHTKQRITEISNRYGFDSLSHFAHFCKASFGDSPRALRTRAARGEKITALKTE”, the “soluble on expression in E. coli” value is listed as “not soluble”.

For the sequence “MGSDKIHHHHHHMTTVYSGLISCYNAYPKKHSYRVRRSDKGWHDGAVWYLEKAKIMLRNDNLKIKGLTPEQEENVRAIHAMNPAHILVECATNKSWGGKKELSDLDLDSYKKAADTLYEEGFGLCIRYNRQTSIKEFIQQIVDHIGAAQYDNVETGKQTIKLIRRDYKPEDLPVFNYDNGILSVRDDDSGATDKQPNQVIVKYREPVSNRDDQAIANNIASVRMHGVISKTVEYKGVPTFDLAARLARDLELVASGLTRLKIVFDMRASELKPGDVVRVNLPDRDIVDVVFRVGKLENGNDGEIIATCIQDVFGLPAANYSTQKGESLYIPPDYTANPIQQARLIEVPYHVLPLVLSDAERAFVKPTDCFVWALGAQPTALSVGYDMLVDVGGGYTQTATGSFTPFVRLLEPVSPYQTNIKIKLEGDYAAVAGALALIVDDEIIKIDAVDFKTGTMTVGRGCADTVPQAHKADAVAWCYLLAAGTDESKYTVNERLNVKLLTRTAQQTLDESKAEVLTLTTQQRQARPFCVELGVPRPRRTSGQTDSALGRQHAPRRWRQL”, the “soluble on expression in E. coli” value was “not soluble”.

Take “MQTVNNIISSVSTVESKAYRDAMSHYAGAVQIVTTAGAAGRRGLTLTAACSVSDNPPTILICLQKIHEENRIFIENGVFAINTLAGPHQQLADAFSGRIGLTQDERFELAAWEILATGAPVLKGALAAFDCRVVSVQDHSTHHVLFGEVVGLSSHAEEEALIYLNRRYHKLEL”: the “soluble on expression in E. coli” value is “soluble”.

As for “MGSDKIHHHHHHMRRLPPLNALQIFETVARHRSFTRAADHLCLTQGAVSRQIIALEDYYKFPLFKRHAKGLTLTAEGELLLPAVKESFARIEEISLRLTRQRTDLALKVPTCVMRWMLPKIMRFQAEYPELHVQITTTWQHDVDFQLEPFDAAIIYGSSPGADVQAVPLFEERLTPVCAPDLLKDKPLAELADLARHTLLHPTRDHRDWKMWLARVTEMGAANAPVIDAEHGPSFDTLDMATNAALQGFGVAISDLALIDEDVAAKRLVRPFDTVLKTGWRYYFVYPDSVAHQQKLNLFRDWIAAHWEE”, the “soluble on expression in E. coli” value was “not soluble”.

In the case of “QRDDVTGVQTLAGNLDPTQWTKTKSLSPLSGSLDPLDYTQRLALIPQRHFSGAGDEMIPTELAERYNRLLGNTACSQLIIVAGATHETGWEEAWKVWRGL”, the “soluble on expression in E. coli” value is recorded as “not soluble”.

Take “MGSDKIHHHHHHMFDAIGWDEIKNFEYMKQSIIAKIEHACASHEIPLHTHPKGQLILALHGYVTCEVSAKMWMVPTHSAIWIPAYKVHSNRASDNAKLCHLFIDSNMDGMPQNTCTLAISPLVKELMCELASRDQHYRSNSKTARLAQVLHDQLIDMPIQHLDFVLSKNMVIQAMSQQLISQPHDRKTLPQWAEQFALTERTLARLIKKETGMTFGKWRTQLHIITSLQALSDKQSVQQVSELLGYESVSAFITMFKKVMKTSPMKYMNELNAY”: the “soluble on expression in E. coli” value is on record as “not soluble”.

For “MKMKSLFVAMITFFSAAPFAHWQPIGNAEYTWGPFHVYTIGLFSETGTYQENERPLMLSFKYEKPIEGKNFAITLIKEIETLKLNDGDTQSWLKEMQATFPDFSPNDILNYIALPDRGYFVLNDTVLEHDFDAKFNQAFIGIWLAPNSTFVKLQPQLLGKTKSNHEATEFYLKPEIESFDEQDSTPELPPNYLLDSQKKSQG”, the “soluble on expression in E. coli” value is listed as “not soluble”.

As to “EPIVTVYVAYGGLDLIAEEFEKDTGIKMEYVSLSSGEALSRLKAEQSNPSADVWLGGGIDAFISAQNDGLLEAYKSPNAEEIDPLFVEENGYWIGVSLVTIGILENTDLMTEKGLPEPETWDDLITEDYSGELIASNPTVSGTAYFTICGILQMNGEEEGWNYLDKFYQNTPFLTKRGSGPGNLVTAGEYAYGVAPDPHTTLIANSELPVKSVFLDNVIWWPSPVSIVNGAKHPENAKIFVDWCLSKEGQEVLMQASPRVPVRGDI”, the “soluble on expression in E. coli” value is on record as “not soluble”.

With “MSLSEDENALSIFETNCHSGSPKKQSSSAAIHKPYLHFTMSPYHQPTSYRPRLLLSGERGSGQTSHLAPALLHTLERFSVHRLDLPALYSVSAKTPEESCAQIFREARRTVPSIVYMPHIGDWWEAVSETVRATFLTLLQDIPSFSPIFLLSTSETMYSELPEEVKCIFRIQYEEVLYIQRPIEEDRRKFFQELILNQASMAPPRRKHAALCAMEVLPLALPSPPRQLSESEKSRMEDQEENTLRELRLFLRDVTKRLATDKRFNIFSKPVDIEEVSDYLEVIKEPMDLSTVITKIDKHNYLTAKDFLKDIDLICSNALEYNPDKDPGDKIIRHRACTLKDTAHAIIAAELDPEFNKLCEEIKEARIEGHHHHHH”, the “soluble on expression in E. coli” value was “not soluble”.

For “MSLKAVIGISASEVTIQSGPFMGEPRTYVNAAYVDSVLKNGGIPLVIPFTAGGEEMAFKQLDLVDGLILSGGHDLNPHLYGEEIDQKSGETWPDRDAFDMALLKRAEETGKPVLGICRGAQIINVAHGGSMWQDLSLRPGNTLKHMQAIRPDVGTHVVKIKSGTTLKKIMGKSSLMTNSFHHQLIKEVAPDLTESASASDGVTEALESTDGKVIAVQWHPEEMHANPAPEAAIMNRLFKYLIDKAEEEKEGHHHHHH”, the “soluble on expression in E. coli” value is given as “soluble”.
